In the supplement of paper PMC10724198:
± gives the standard deviation of the averaged measurements.

Tested on: Saccharomyces cerevisiae
Assay: protein stability index of tFT-peptide fusion (C-terminal peptide) (PSI (0-1 scale)); higher = more stable (slower turnover)
Conditions: genetic background: wild type; temperature: 30 C
Method: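 Multiplexed protein stability (MPS) profiling in S. cerevisiae. Random 12-aa peptides (tFT-X12 library) are fused to the C-terminus of a sfGFP-mCherry tandem fluorescent timer, after mCherry and a GGGS linker. Cells are FACS-sorted into 8 mCherry/sfGFP bins and deep-sequenced. The protein stability index (PSI) is the read-weighted bin average, scaled from 0 (unstable) to 1 (stable). Only peptides with >10 reads are reported; cells were grown at 30 °C in SC-His with glucose.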
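Also: PSI is a weighted mean of sequencing reads over stability bins, variants kept only with over 10 reads, mCherry proximal and sfGFP distal, peptide attached via GGGS linker.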

| Sequence | protein stability index |
| --- | --- |
| IPCKVCQSLIPP | 0.611 ± 0.12 |
| LAGGRCGCGTHD | 0.684 ± 0.042 |
| FPSPPHALPTFP | 0.669 ± 0.071 |
| TPASPSPPPRPP | 0.625 ± 0.019 |
| YAERNKKTLKDT | 0.638 ± 0.011 |
| IQKNKQEVKTNI | 0.685 ± 0.1 |
| RLIPPQTAHEFP | 0.685 ± 0.028 |
| PPPHPGFHLSSP | 0.673 ± 0.088 |
| STVKVVIIHFKI | 0.48 ± 0.036 |
| SSSLCSSSLGGS | 0.605 ± 0.069 |
| PSLPPPPPRAFS | 0.649 ± 0.0028 |
| FSLLSFLLPLFP | 0.787 ± 0.12 |
| CFFGSILYLCFG | 0.5331 ± 0.0045 |
| RGLVSPPPPLPS | 0.681 ± 0.024 |
| PSAPSLPPFFPP | 0.644 ± 0.04 |
| ALIGMFATVALI | 0.689 ± 0.099 |
| CFLLCLSSSPVL | 0.64 ± 0.029 |
| VGTPPSEVGVLA | 0.628 ± 0.035 |
| LTGTVQPKLILP | 0.722 ± 0.051 |
| AIDGVREDTSVE | 0.704 ± 0.18 |
| VVGDGVWCLSVG | 0.721 ± 0.046 |
| VFAGGCRLYCFR | 0.624 ± 0.063 |
| KTRHVGSDNQGL | 0.663 ± 0.043 |
| IAFSINAFCWRG | 0.552 ± 0.055 |
| GKCLEGCCLVWG | 0.686 ± 0.008 |

| Sequence | protein stability index |
| --- | --- |
| EVKDDSKVVVYV | 0.666 ± 0.022 |
| SRRYLPHRPTSL | 0.732 ± 0.071 |
| EAGVGSGGGRCG | 0.673 ± 0.058 |
| SPPSSFPVFTLL | 0.728 ± 0.05 |
| WFCFGSFILCLL | 0.492 ± 0.028 |
| LPFPSPLPSPPP | 0.702 ± 0.035 |
| KKKKIKKKEKNK | 0.716 ± 0.079 |
| AHLLFGFGAPVS | 0.714 ± 0.15 |
| PCLSFPPALRAA | 0.641 ± 0.012 |
| EGKNEFINGTTT | 0.696 ± 0.023 |
| LNTTKTFCSPCL | 0.692 ± 0.081 |
| LAARTKAQARHN | 0.652 ± 0.04 |
| EKVGVTVLLRHV | 0.679 ± 0.038 |
| CCGDAVVGPRVV | 0.711 ± 0.041 |
| IFRFHRSRNSKY | 0.722 ± 0.029 |
| TRGDCFAVRKAR | 0.702 ± 0.027 |
| TNTRKIINMEKQ | 0.717 ± 0.077 |
| FPAYRPARLTPA | 0.606 ± 0.033 |
| SGMGAIADENKE | 0.635 ± 0.051 |
| PAPPPPFPPSPP | 0.695 ± 0.039 |
| SLLLFPCPWFGL | 0.677 ± 0.019 |
| RPPRPPTHSPPP | 0.68 ± 0.01 |
| EGAGSAPCMVQG | 0.68 ± 0.026 |
| RLKFHRLVMTGY | 0.612 ± 0.031 |
| CTCTVSMLPRTC | 0.639 ± 0.017 |

| Sequence | protein stability index |
| --- | --- |
| PPSLPLLLPPCT | 0.649 ± 0.019 |
| PLCAFLFLSSPP | 0.757 ± 0.031 |
| LPQVYSGIMRFV | 0.6243 ± 0.0036 |
| GVWREVGNIEEV | 0.701 ± 0.0099 |
| DTYSEQRIVVTK | 0.677 ± 0.012 |
| FGVVGAVGWRLR | 0.638 ± 0.03 |
| FKLSRTDSWMFT | 0.712 ± 0.01 |
| PPRQLPFLAPSP | 0.709 ± 0.046 |
| LGCDDWIDWSRG | 0.694 ± 0.054 |
| LARPPPPSNHSP | 0.695 ± 0.0094 |
| KKKNKKKRKGRK | 0.684 ± 0.037 |
| VGILHCELVDVS | 0.735 ± 0.17 |
| KQDIETDKKEEG | 0.666 ± 0.13 |
| RKKYPLMINGKR | 0.711 ± 0.0073 |
| FGYSGCVAKTGL | 0.658 ± 0.049 |
| FLSALLALPASP | 0.698 ± 0.0064 |
| SPTPSLPFPALF | 0.737 ± 0.097 |
| RVGTHDRTRAHG | 0.601 ± 0.02 |
| PSSRPPPPPPPP | 0.698 ± 0.037 |
| WVVSLTNSLAHV | 0.581 ± 0.013 |
| TSQHLQNHYKKI | 0.701 ± 0.0035 |
| PTPPVPPPRTLL | 0.667 ± 0.055 |
| PWDGFGPYAPYP | 0.657 ± 0.081 |
